In the Immune Epitope Database (IEDB):
Each block holds one sequence with its values, some of them ahead of it.

Columns and labels:
[1] = target: HLA-A*02:06; assay: IEDB peptide-MHC binding, purified MHC/competitive/fluorescence; filed as Kd, often an IC50 or EC50 that approximates it; ≥ and ≤ were set here for values at or beyond the usual limits of such assays; conditions: source organism: Mycobacterium tuberculosis variant bovis BCG str. Pasteur 1173P2
[2] = target: HLA-B*07:02; assay: as above; conditions: source organism: Mycobacterium tuberculosis variant bovis BCG str. Pasteur 1173P2
[3] = target: HLA-A*26:01; assay: as above; conditions: source organism: Mycobacterium tuberculosis variant bovis BCG str. Pasteur 1173P2
[4] = target: HLA-A*68:02; assay: as above; conditions: source organism: Mycobacterium tuberculosis variant bovis BCG str. Pasteur 1173P2
[5] = target: HLA-A*26:02; assay: as above; conditions: source organism: Mycobacterium tuberculosis variant bovis BCG str. Pasteur 1173P2
[6] = target: HLA-A*26:03; assay: as above; conditions: source organism: Mycobacterium tuberculosis variant bovis BCG str. Pasteur 1173P2
[7] = target: HLA-A*01:01; assay: IEDB peptide-MHC binding, purified MHC/direct/fluorescence; filed as Kd, often an IC50 or EC50 that approximates it; ≥ and ≤ were set here for values at or beyond the usual limits of such assays
[8] = target: HLA-B*57:01; assay: as above
[9] = target: HLA-B*08:03; assay: as above
[10] = target: HLA-A*69:01; assay: as above; conditions: source organism: Mycobacterium tuberculosis
[11] = target: HLA-B*08:01; assay: as above
[12] = target: HLA-B*15:01; assay: as above
[13] = target: HLA-A*31:01; assay: as above
[14] = target: HLA-B*27:05; assay: as above
[15] = target: HLA-B*15:17; assay: as above
[16] = target: HLA-B*40:01; assay: as above
[17] = target: HLA-A*02:01; assay: as above
[18] = target: HLA-B*58:01; assay: as above
[19] = target: HLA-B*46:01; assay: as above
[20] = target: HLA-B*48:01; assay: as above
[21] = target: HLA-B*08:02; assay: as above
[22] = target: HLA-A*11:01; assay: as above
[23] = target: HLA-B*18:01; assay: as above
[24] = target: HLA-B*45:06; assay: IEDB peptide-MHC binding, purified MHC/competitive/fluorescence; filed as Kd, often an IC50 or EC50 that approximates it; ≥ and ≤ were set here for values at or beyond the usual limits of such assays
[25] = target: HLA-C*06:02; assay: as above; conditions: source organism: Methylibium petroleiphilum PM1
[26] = target: HLA-B*40:13; assay: as above; conditions: source organism: Methylibium petroleiphilum PM1
[27] = target: HLA-B*83:01; assay: as above
[28] = target: HLA-C*14:02; assay: as above; conditions: source organism: Methylibium petroleiphilum PM1
[29] = target: HLA-B*15:02; assay: as above; conditions: source organism: Methylibium petroleiphilum PM1
[30] = target: HLA-B*15:42; assay: as above
[31] = target: HLA-B*27:20; assay: as above
[32] = target: HLA-C*07:02; assay: IEDB peptide-MHC binding, purified MHC/direct/fluorescence; filed as Kd, often an IC50 or EC50 that approximates it; ≥ and ≤ were set here for values at or beyond the usual limits of such assays; conditions: source organism: Methylibium petroleiphilum PM1
[33] = target: HLA-C*15:02; assay: as above; conditions: source organism: Methylibium petroleiphilum PM1
[34] = target: HLA-B*40:02; assay: IEDB peptide-MHC binding, cellular MHC/competitive/fluorescence; ≥ and ≤ were set here for values at or beyond the usual limits of such assays; conditions: source organism: Homo sapiens
[35] = target: HLA-A*80:01; assay: IEDB peptide-MHC binding, purified MHC/direct/fluorescence; filed as Kd, often an IC50 or EC50 that approximates it; ≥ and ≤ were set here for values at or beyond the usual limits of such assays; conditions: source organism: West Nile virus
[36] = target: HLA-C*04:01; assay: as above; conditions: source organism: Japanese encephalitis virus
[37] = target: HLA-B*73:01; assay: as above; conditions: source organism: Burkholderia mallei ATCC 23344
[38] = target: HLA-C*06:02; assay: as above; conditions: source organism: human gammaherpesvirus 4
[39] = target: HLA-B*07:02; assay: as above; conditions: source organism: Yersinia pestis
[40] = target: HLA-A*26:01; assay: as above; conditions: source organism: Yersinia enterocolitica subsp. enterocolitica 8081
[41] = target: HLA-A*03:01; assay: as above; conditions: source organism: Yersinia pestis
[42] = target: HLA-A*68:02; assay: as above; conditions: source organism: Yersinia pestis
[43] = target: HLA-A*26:03; assay: as above; conditions: source organism: Yersinia enterocolitica subsp. enterocolitica 8081
[44] = source organism: Mycobacterium tuberculosis
[45] = source organism: Mycobacterium tuberculosis str. Haarlem
[46] = source organism: Methylibium petroleiphilum PM1
[47] = source organism: Burkholderia mallei
[48] = source organism: human gammaherpesvirus 4
[49] = source organism: Yersinia pestis
[50] = source organism: Yersinia enterocolitica subsp. enterocolitica 8081

Sequence: AVFDSFVER
Kd [1]: 0.0023 µM
Kd [2]: ≥ 20 µM
Kd [3]: ≥ 20 µM
Kd [4]: ≥ 20 µM
Kd [5]: ≥ 20 µM
Kd [6]: ≥ 20 µM
Kd [7, 44]: ≥ 20 µM
Kd [8, 44]: ≥ 20 µM
Kd [9, 45]: ≥ 20 µM
Kd [10]: ≥ 20 µM
Kd [11, 45]: ≥ 20 µM
Kd [12, 44]: ≥ 20 µM
Kd [13, 44]: 0.004 µM
Kd [14, 44]: ≥ 20 µM
Kd [15, 44]: ≥ 20 µM
Kd [16, 44]: ≥ 20 µM
Kd [17, 44]: ≥ 20 µM
Kd [18, 44]: ≥ 20 µM
Kd [19, 44]: ≥ 20 µM
Kd [20, 44]: ≥ 20 µM
Kd [21, 45]: ≥ 20 µM
Kd [22, 44]: 0.009 µM
Kd [23, 44]: ≥ 20 µM

Kd [24, 46]: ≥ 5 µM
Kd [25]: 0.513 µM
Kd [26]: 0.0088 µM
Kd [27, 46]: ≥ 5 µM
Kd [28]: 0.0132 µM
Kd [29]: 0.0144 µM
Kd [30, 46]: ≥ 5 µM
Kd [31, 46]: 0.0003 µM
Kd [32]: 0.448 µM
Kd [33]: 2.18 µM
Sequence: FQMGGIGPM

IC50 [34]: 1.9 µM
Sequence: KEQSPEPHL

Sequence: QTDNQLAVF
Kd [35]: ≥ 20 µM
Kd [36]: ≥ 20 µM

Sequence: RRHGMAWRQ
Kd [14, 47]: 0.213 µM
Kd [37]: 12 µM
Kd [20, 47]: ≥ 20 µM

Sequence: RRRKGWIPL
Kd [24, 48]: ≥ 5 µM
Kd [27, 48]: ≥ 5 µM
Kd [30, 48]: ≥ 5 µM
Kd [31, 48]: 0.0002 µM
Kd [38]: ≥ 20 µM

Sequence: SDDQLRLLK
Kd [7, 49]: ≥ 20 µM
Kd [8, 49]: ≥ 20 µM
Kd [9, 50]: ≥ 20 µM
Kd [11, 50]: ≥ 20 µM
Kd [12, 49]: ≥ 20 µM
Kd [13, 49]: ≥ 20 µM
Kd [39]: ≥ 20 µM
Kd [14, 49]: ≥ 20 µM
Kd [40]: ≥ 20 µM
Kd [41]: ≥ 20 µM
Kd [15, 49]: ≥ 20 µM
Kd [16, 49]: ≥ 20 µM
Kd [42]: ≥ 20 µM
Kd [17, 49]: ≥ 20 µM
Kd [18, 49]: ≥ 20 µM
Kd [19, 49]: ≥ 20 µM
Kd [20, 49]: ≥ 20 µM
Kd [21, 50]: ≥ 20 µM
Kd [43]: ≥ 20 µM
Kd [22, 49]: 0.407 µM
Kd [23, 49]: ≥ 20 µM
